Data taken from US11203743B2, “Method for producing long-chain glycosylated genistein” (Jiangnan University, priority 2019, dated 2021).

Assay: Specificity of different cyclodextrin glucosyltransferases to glycosylated genistein products (maltodextrin donor, genistein receptor, HPLC)
Assay type: biochemical
Settings: 40° C., pH 6.5, 120 rpm, 20-24 hours
Description: Genistein (purchased from Sigma) was dissolved in dimethyl sulfoxide (DMSO) to prepare a genistein solution with a final concentration of 7.5 g/L; maltodextrin (purchased from Shanghai Sangon Biotech Co., Ltd.) was dissolved in a PBS buffer (50 mM, pH 6.5) to prepare a maltodextrin solution with a final concentration of 40 g/L; the freeze-fried pure enzymes of the mutants A156V/L174P, A156V/L174P/166Y, A156V/L174P/A166V, A156V/L174P/A166G, A156V/L174P/A166K, A156S, A156L and L174M obtained in Example 1 were dissolved in a PBS buffer (50 mM, pH 6.5) separately to prepare a CGTase enzyme solution with a final concentration of 15 U/L; 300 μL of the genistein solution, 500 μL of the maltodextrin solution and 200 μL of the CGTase enzyme solution were taken separately, mixed in a 2 mL vial with a lid and placed in a shaker for slow shaking at 40° C. and 120 rpm for 20-24 hours to obtain a reaction solution.
The molar content of short-chain glycosylated genistein (here the short-chain glycosylated genistein was a mixture of monoglycosylated genistein, diglycosylated genistein and triglycosylated genistein) and long-chain glycosylated genistein (here the long-chain glycosylated genistein was a mixture of tetraglycosylated genistein, pentaglycosylated genistein and hexaglycosylated genistein) in the reaction solution was detected by HPLC, the ratio (%) of the molar content of short-chain glycosylated genistein and long-chain glycosylated genistein in the reaction solution to the molar content of total glycosylated genistein in the reaction solution and the content (g/L) of short-chain glycosylated genistein and long-chain glycosylated genistein in the reaction solution were calculated, and detection results were shown in Tables 1 to 2. A method for detecting the ratio (%) of the content of short-chain glycosylated genistein and long-chain glycosylated genistein in the reaction solution to the content of total glycosylated genistein in the reaction solution by HPLC included that the reaction solution was filtered through a 0.22 μm filter membrane, and an Amethyst C18-H column (4.6*250 mm, Sepax, America) was used for detection (see Table 3 for specific detection conditions). The content of long-chain glycosylated genistein=the molar content of hexaglycosylated genistein*the molecular weight of hexaglycosylated genistein+ the molar content of pentaglycosylated genistein*the molecular weight of pentaglycosylated genistein+ the molar content of tetraglycosylated genistein*the molecular weight of tetraglycosylated genistein, and the content of short-chain glycosylated genistein=the molar content of triglycosylated genistein*the molecular weight of triglycosylated genistein+ the molar content of diglycosylated genistein*the molecular weight of diglycosylated genistein+ the molar content of monoglycosylated genistein*the molecular weight of monoglycosylated genistein.

B1: Wild type: cyclodextrin glucosyltransferase with the amino acid sequence shown as SEQ ID NO: 1 (protein)
chain: SPDTSVDNKVNFSTDVIYQIVTDRFADGDRTNNPAGDAFSGDRSNLKLYFGGDWQGIIDKINDGYLTGMGVTALWISQPVENITSVIKYSGVNNTSYHGYWARDFKQTNDAFGDFADFQNLIDTAHAHNIKVVIDFAPNHTSPADRDNPGFAENGALYDNGSLLGAYSNDTAGLFHHNGGTDFSTIEDGIYKNLYDLADINHNNNAMDAYFKSAIDLWLGMGVDGIRFDAVKHMPFGWQKSFVSSIYGGDHPVFTFGEWYLGADQTDGDNIKFANESGMNLLDFEYAQEVREVFRDKTETMKDLYEVLASTESQYDYINNMVTFIDNHDMDRFQVAGSGTRATEQALALTLTSRGVPAIYYGTEQYMTGDGDPNNRAMMTSFNTGTTAYKVIQALAPLRKSNPAIAYGTTTERWVNNDVLIIERKFGSSAALVAINRNSSAAYPISGLLSSLPAGTYSDVLNGLLNGNSITVGSGGAVTNFTLAAGGTAVWQYTAPETSPAIGNVGPTMGQPGNIVTIDGRGFGGTAGTVYFGTTAVTGSGIVSWEDTQIKAVIPKVAAGKTGVSVKTSSGTASNTFKSFNVLTGDQVTVRFLVNQANTNYGTNVYLVGNAAELGSWDPNKAIGPMYNQVIAKYPSWYYDVSVPAGTKLDFKFIKKGGGTVTWEGGGNHTYTTPASGVGTVTVDWQN
modifications: Translated from synthetic DNA
- content of long-chain glycosylated genistein in the reaction solution: 3.2 g/L
- content of short-chain glycosylated genistein in the reaction solution: 11.4 g/L
- ratio of the molar content of long-chain glycosylated genistein to the molar content of total glycosylated genistein in the reaction solution: 15%
- ratio of the molar content of short-chain glycosylated genistein to the molar content of total glycosylated genistein in the reaction solution: 85%
